Among the data in patent US7176008B2, “Process for producing activated thrombin-activatable fibrinolysis inhibitor” (Merck & Co., Inc., priority 2002, dated 2007) are Km values, retold here.

Substrate in this series: CSCC[C@H](NC(=O)[C@H](CC(C)C)NC(=O)CNC(=O)CCCCCNC(=O)CCCCCNC(=O)CCCC[C@@H]1SC[C@@H]2NC(=O)N[C@@H]21)C(=O)N[C@H](C(=O)NCC(=O)NCC(=O)N[C@H](C(=O)N[C@H](C(=O)N[C@@H](CCCNC(=N)N)C(=O)O)C(C)C)C(C)C)C(C)C
The series is described as follows: purified protein, by the assay type. The settings on record: other: room temperature.

Description: A typical assay (75 μL) contained each studied carboxypeptidase and selected inhibitors (in 5 μL DMSO) in HBSP buffer in 96-well round bottom microtiter plates (Costar 3365 plates). Enzyme and compound were preincubated for 15–30 minutes at room temperature. […] The final substrate concentration was 15 to 50 nM. The amount of carboxypeptidase activity was titrated to result in 40,000–50,000 electrochemiluminescence counts (typically 0.02–0.1 nM, 0.01 nM, 5 nM, and 0.15–0.65 nM. for TAFIa, CPB, CPN and CPM, respectively). […] Ruthenium-labeled G2-10 (25 μL of 0.063 μg/mL) and streptavidin magnetic beads (25 μL of 0.2 mg/mL, Dynabeads M-280) were added to the quenched solution and shaken at 300 rpm for >1 hr. G2-10 antibody and beads were prepared in a BSA diluent containing 150 mM phosphate, pH 7.8, 150 mM NaCl, 3% (w/v) BSA (protease free fraction V) and 0.05% NaN3. The volume was brought to 250 μL with HBSP and read on an Igen 96-well electrochemiluminescence plate reader (M8 Analyzer) at 620 nm. Subtraction of background activity in solutions containing only substrate was performed to determine the final activity. […] One unit was defined as one nM product generated per min.
All measurements were performed in at least duplicates and the inhibition constants (Ki) were determined by the equation below wherein Vo and Vi are activity in the absence and presence of inhibitors, respectively. Vo/Vi=1+[I]/K1
Several commercial inhibitors were tested with the electrochemiluminescence assay.
Hydrolysis of substrate was measured in HBSP (pH 7.4) for TAFIa, CPB, CPM, and CPM. Activities of CPE and CPZ were measures in acetate buffer (pH 5.5) and Tris buffer (pH 7.4), respectively.

B1: CPB (Homo sapiens) (protein)
chain: ATGHSYEKYNKWETIEAWTQQVATENPALISRSVIGTTFEGRAIYLLKVGKAGQNKPAIFMDCGFHAREWISPAFCQWFVREAVRTYGREIQVTELLDKLDFYVLPVLNIDGYIYTWTKSRFWRKTRSTHTGSSCIGTDPNRNFDAGWCEIGASRNPCDETYCGPAAESEKETKALADFIRNKLSSIKAYLTIHSYSQMMIYPYSYAYKLGENNAELNALAKATVKELASLHGTKYTYGPGATTIYPAAGGSDDWAYDQGIRYSFTFELRDTGRYGFLLPESQIRATCEETFLAIKYVASYVLEHLY
In general, Km refers to the substrate concentration at which the rate is half of its maximum. As for B1, the Km (HBSP pH 7.4) was found to be 12 µM.

B2: CPM (Homo sapiens) (protein)
chain: LDFNYHRQEGMEAFLKTVAQNYSSVTHLHSIGKSVKGRNLWVLVVGRFPKEHRIGIPEFKYVANMHGDETVGRELLLHLIDYLVTSDGKDPEITNLINSTRIHIMPSMNPDGFEAVKKPDCYYSIGRENYNQYDLNRNFPDAFEYNNVSRQPETVAVMKWLKTETFVLSANLHGGALVASYPFDNGVQATGALYSRSLTPDDDVFQYLAHTYASRNPNMKKGDECKNKMNFPNGVTNGYSWYPLQGGMQDYNYIWAQCFEITLELSCCKYPREEKLPSFWNNNKASLIEYIKQVHLGVKGQVFDQNGNPLPNVIVEVQDRKHICPYRTNKYGEYYLLLLPGSYIINVTVPGHDPHITKVIIPEKSQNFSALKKDILLPFQGQLDSIPVSNPSCPMIPLYRNLPDHS
With B2, the Km turned out to be 38 µM.

B3: TAFIa (Homo sapiens) (protein)
chain: ASASYYEQYHSLNEIYSWIEFITERHPDMLTKIHIGSSFEKYPLYVLKVSGKEQAAKNAIWIDCGIHAREWISPAFCLWFIGHITQFYGIIGQYTNLLRLVDFYVMPVVNVDGYDYSWKKNRMWRKNRSFYANNHCIGTDLNRNFASKHWCEEGASSSSCSETYCGLYPESEPEVKAVASFLRRNINQIKAYISMHSYSQHIVFPYSYTRSKSKDHEELSLVASEAVRAIEKISKNTRYTHGHGSETLYLAPGGGDDWIYDLGIKYSFTIELRDTGTYGFLLPERYIKPTCREAFAAVSKIAWHVIRNV
As for B3, the Km (HBSP pH 7.4) came to 8 µM.
